US7090848

Columns and labels:
Experiment in all cases: cell-based or functional assay
CCR3 = CCR3 (UniProt P51677)
CCR4 = CCR4 (UniProt P51679)
CXCR4 = CXCR4 (UniProt P61073)
CCR5 = CCR5 (UniProt P51681)
CCR1 = CCR1 (UniProt P32246)
Sequence of UniProt P32246 (P32246 whole entry): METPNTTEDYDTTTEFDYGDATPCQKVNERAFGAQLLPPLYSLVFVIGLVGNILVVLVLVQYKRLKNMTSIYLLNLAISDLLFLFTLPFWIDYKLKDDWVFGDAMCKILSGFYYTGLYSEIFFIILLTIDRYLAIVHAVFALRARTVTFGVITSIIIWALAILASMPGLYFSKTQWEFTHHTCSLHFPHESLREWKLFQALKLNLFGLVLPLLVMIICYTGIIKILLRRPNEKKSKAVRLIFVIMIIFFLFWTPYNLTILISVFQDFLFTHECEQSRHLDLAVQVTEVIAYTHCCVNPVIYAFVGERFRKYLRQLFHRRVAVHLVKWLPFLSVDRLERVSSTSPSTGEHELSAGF

Sequence of UniProt P61073 (P61073 whole entry): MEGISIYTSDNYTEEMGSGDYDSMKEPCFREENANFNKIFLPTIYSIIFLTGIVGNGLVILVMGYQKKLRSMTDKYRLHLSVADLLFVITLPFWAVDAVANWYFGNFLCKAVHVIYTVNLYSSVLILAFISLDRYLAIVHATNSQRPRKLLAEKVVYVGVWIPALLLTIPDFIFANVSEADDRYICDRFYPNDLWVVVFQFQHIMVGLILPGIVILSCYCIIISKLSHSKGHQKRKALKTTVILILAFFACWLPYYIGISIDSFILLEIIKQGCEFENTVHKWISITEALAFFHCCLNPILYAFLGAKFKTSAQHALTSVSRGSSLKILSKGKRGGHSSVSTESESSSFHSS
Sequence of UniProt P51677 (P51677 whole entry): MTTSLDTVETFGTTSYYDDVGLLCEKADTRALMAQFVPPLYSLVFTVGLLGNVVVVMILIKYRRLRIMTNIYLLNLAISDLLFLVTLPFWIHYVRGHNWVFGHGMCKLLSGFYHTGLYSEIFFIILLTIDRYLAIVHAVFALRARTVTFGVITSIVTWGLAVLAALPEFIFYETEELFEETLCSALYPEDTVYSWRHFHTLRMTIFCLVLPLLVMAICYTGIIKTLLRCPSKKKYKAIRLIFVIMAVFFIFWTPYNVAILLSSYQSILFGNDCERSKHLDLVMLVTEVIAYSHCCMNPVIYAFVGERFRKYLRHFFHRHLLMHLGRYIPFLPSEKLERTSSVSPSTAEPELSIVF
Sequence of UniProt P51681 (P51681 whole entry): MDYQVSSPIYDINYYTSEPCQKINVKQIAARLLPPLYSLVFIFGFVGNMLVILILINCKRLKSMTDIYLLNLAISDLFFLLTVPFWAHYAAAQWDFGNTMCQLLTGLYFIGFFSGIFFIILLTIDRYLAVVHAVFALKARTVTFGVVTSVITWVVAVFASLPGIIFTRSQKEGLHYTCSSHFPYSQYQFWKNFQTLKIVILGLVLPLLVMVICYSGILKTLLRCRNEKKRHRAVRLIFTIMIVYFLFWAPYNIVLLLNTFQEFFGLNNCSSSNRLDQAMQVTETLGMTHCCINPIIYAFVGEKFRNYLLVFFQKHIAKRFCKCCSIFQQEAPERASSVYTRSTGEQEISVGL
Sequence of UniProt P51679 (P51679 whole entry): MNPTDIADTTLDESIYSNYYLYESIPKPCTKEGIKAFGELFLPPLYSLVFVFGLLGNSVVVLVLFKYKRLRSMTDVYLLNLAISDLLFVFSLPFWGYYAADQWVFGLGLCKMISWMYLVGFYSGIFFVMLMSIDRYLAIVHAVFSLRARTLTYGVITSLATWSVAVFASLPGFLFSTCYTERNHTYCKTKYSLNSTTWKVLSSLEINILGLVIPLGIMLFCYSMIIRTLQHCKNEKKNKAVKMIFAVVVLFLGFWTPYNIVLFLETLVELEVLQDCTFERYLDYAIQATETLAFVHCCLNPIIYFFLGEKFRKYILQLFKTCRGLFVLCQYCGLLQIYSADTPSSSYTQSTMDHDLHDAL

Row | Substance | Infectivity Titer In HOS-CD4 Cells Expressing CCR3 (CCR3) | Infectivity Titer In HOS-CD4 Cells Expressing CCR4 (CCR4) | Infectivity Titer In HOS-CD4 Cells Expressing CXCR4 (CXCR4) | Infectivity Titer In HOS-CD4 Cells Expressing CCR5 (CCR5) | Infectivity Titer In HOS-CD4 Cells Expressing CCR1 (CCR1)
1 | HIV-1 AD8 envelope | < 4 titer (1:x) | < 4 titer (1:x) | < 4 titer (1:x) | 256 titer (1:x) | < 4 titer (1:x)
2 | HIV-1 NL4-3 envelope | < 4 titer (1:x) | < 4 titer (1:x) | > 256 titer (1:x) | 32 titer (1:x) | < 4 titer (1:x)
